T1: full-length human ETA receptor construct with an internal FLAG epitope tag (human) (UniProt P25101)
T1 sequence: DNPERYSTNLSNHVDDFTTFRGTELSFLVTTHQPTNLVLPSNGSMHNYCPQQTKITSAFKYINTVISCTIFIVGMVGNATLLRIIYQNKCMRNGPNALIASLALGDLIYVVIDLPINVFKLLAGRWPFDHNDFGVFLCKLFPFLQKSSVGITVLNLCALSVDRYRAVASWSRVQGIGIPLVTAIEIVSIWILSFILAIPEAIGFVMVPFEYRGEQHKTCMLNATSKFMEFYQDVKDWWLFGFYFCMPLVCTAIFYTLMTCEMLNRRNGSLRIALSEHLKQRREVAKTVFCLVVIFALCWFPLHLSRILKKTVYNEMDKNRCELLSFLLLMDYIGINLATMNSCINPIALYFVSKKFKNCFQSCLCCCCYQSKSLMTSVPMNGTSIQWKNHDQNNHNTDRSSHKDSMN

T2: ETA-SmBiT construct (human ETA receptor with SmBiT at the C-terminus) (human) (UniProt P25101)
T2 sequence: T1 sequence


Legend:
[1] = target: human ETB receptor, wild type, codon-optimized construct with an internal FLAG epitope tag (human) (UniProt P24530)
[2] = target: thermostabilized human ETB receptor (ETB-Y5), construct with an internal FLAG epitope tag (human) (UniProt P24530)
[3] = target: human ETB receptor L252H I254T double mutant (human) (UniProt P24530)
[4] = target: human ETB receptor, wild type, codon-optimized construct with an internal FLAG epitope tag (human) (UniProt P24530); remark: listed apart in the source
[5] = target: ETB-Y5 with SmBiT at the C-terminus (thermostabilized human ETB receptor) (human) (UniProt P24530)
[6] = target: ETB-SmBiT construct (human ETB receptor with SmBiT at the C-terminus) (human) (UniProt P24530)
[7] = target: T1, full-length human ETA receptor construct with an internal FLAG epitope tag (human)
[8] = target: T2, ETA-SmBiT construct (human ETA receptor with SmBiT at the C-terminus) (human)

AP-TGFα release (TGFα shedding assay), EC50 [1] [nM]	AP-TGFα release (TGFα shedding assay), Emax relative to ET-1 [1] [%]	AP-TGFα release (TGFα shedding assay), EC50 [2] [nM]	AP-TGFα release (TGFα shedding assay), Emax relative to ET-1 [2] [%]	AP-TGFα release (TGFα shedding assay), EC50 [3] [nM]	AP-TGFα release (TGFα shedding assay), EC50; experiment with the double mutant [4] [nM]	β-arrestin recruitment (NanoBiT, receptor-SmBiT with m12), EC50 [5] [nM]	β-arrestin recruitment (NanoBiT, receptor-SmBiT with m12), Emax relative to ET-1 [5] [%]	β-arrestin recruitment (NanoBiT, receptor-SmBiT with m12), EC50 [6] [nM]	β-arrestin recruitment (NanoBiT, receptor-SmBiT with m12), Emax relative to ET-1 [6] [%]	AP-TGFα release (TGFα shedding assay), EC50 [7] [nM]	AP-TGFα release (TGFα shedding assay), Emax relative to ET-1 [7] [%]	β-arrestin recruitment (NanoBiT, receptor-SmBiT with m12), EC50 [8] [nM]	β-arrestin recruitment (NanoBiT, receptor-SmBiT with m12), Emax relative to ET-1 [8] [%]	Molecule
0.11	87.6	0.92	83.6	0.32	0.14	15.1	85.4	3.1	87.3	–	–	–	–	IRL1620 (N-Suc-[E9, A11, 15] ET-1(8-21)) (peptide)
0.13	100	0.077	101	–	–	3.5	105	3.3	105	0.65	101	10.8	81.1	CTCFTYKDKECVYYCHLDIIW [endothelin-3]

Source: publication PMC6226434
